# Data as given in publication PMC9712102.
# pKd: −log10 of the molar value.
# Assays:
# [1] = molecular target: Gp57, purified (phage SECΦ27); assay: SEC-MALS; co-purified CapRel^SJ46–Gp57 complex at 5 mg ml^−1; 50 mM HEPES pH 7.5, 500 mM KCl, 500 mM NaCl, 10 mM MgCl2, 1 mM TCEP, 0.002% mellitic acid
# [2] = molecular target: Gp57 (L114P I115F), purified (phage SECΦ27); assay: ITC; CapRel^SJ46 (or variant) at 150 μM in the syringe titrated into Gp57 (or variant) at 10 μM in the cell; 25 °C; 50 mM HEPES pH 7.5, 500 mM KCl, 500 mM NaCl, 150 mM imidazole, 10 mM MgCl2, 1 mM TCEP, 0.002% mellitic acid
# [3] = molecular target: Gp57, purified (phage SECΦ27); assay: as above
# CapRel^SJ46–Flag = assay: immunoprecipitation followed by mass spectrometry
# [4] = molecular target: CapRel^SJ46, purified full-length; assay: ITC; settings: CapRelSJ46 titrated into Gp57(L114P I115F)
substance,measurement,setting,value
"CapRel^SJ46(Y155A), co-purified with Gp57 (natural protein)",stoichiometry N,[1],1
"CapRel^SJ46, purified full-length (natural protein)",fold decrease in affinity against wild-type Gp57,[2],> 60 fold
same,stoichiometry N,[3],1
"Gp57, major capsid protein of SECΦ27, made by wild-type phage during infection L114P",response (SC(Gp57)/SC(CapRelSJ46)),"CapRel^SJ46–Flag; 40 min after infection, bar = mean of 2 biological replicates, parent: est. 0.33, read off a plot",0.07
same,response (spectral counts (SC)),"CapRel^SJ46–Flag; replicate1, 15 min after infection, CapRelSJ46 SC 276 (L114P mutant), 286 (WT), parent: 12",0
same,response (spectral counts (SC)),"CapRel^SJ46–Flag; replicate1, 40 min after infection, CapRelSJ46 SC 251 (L114P mutant), 217 (WT), parent: 64",25
same,response (spectral counts (SC)),"CapRel^SJ46–Flag; replicate2, 15 min after infection, CapRelSJ46 SC 145 (L114P mutant), 161 (WT), parent: 0",0
same,response (spectral counts (SC)),"CapRel^SJ46–Flag; replicate2, 40 min after infection, CapRelSJ46 SC 156 (L114P mutant), 138 (WT), parent: 52",6
"Gp57, purified L114P; I115F",pKd,[4],4.63
